Measurements: US20210238260
“And” between values parts separate entries of the source, which are not always exact repeats. Identical values can stand only once.

Legend:
[1] = biological target: Factor X (FX) zymogen, active site titrated and DFP/EGR-cmk treated, P00742
[2] = biological target: plasma purified human AT-III (antithrombin III), in complex with full-length unfractionated heparin (UFH); assay: ratio of K0.5 (lower-limit value) of the variant to K0.5 of Catalyst Biosciences WT FIXa, AT-III/UFH inhibition
[3] = biological target: antithrombin III (plasma purified human AT-III), used as the AT-III/unfractionated heparin complex; assay: K0.5 ratio to Catalyst Biosciences WT FIXa, AT-III/UFH inhibition assay
[4] = biological target: T1, Antithrombin III (plasma purified human AT-III, Molecular Innovations); assay: same assay; ratio to recombinant wild-type FIXa (Catalyst Biosciences WT)
[5] = biological target: T1, Antithrombin III (plasma purified human …); assay: AT-III/UFH inhibition: FIXa variant incubated with AT-III dilutions in excess unfractionated heparin, residual cleavage of Mesyl-D-CHG-Gly-Arg-AMC; K0.5 = AT-III concentration for 50% inhibition (IC50)

Chain of Factor X (FX) zymogen, active site titrated and DFP/EGR-cmk treated, P00742 (P00742 whole entry, looked up): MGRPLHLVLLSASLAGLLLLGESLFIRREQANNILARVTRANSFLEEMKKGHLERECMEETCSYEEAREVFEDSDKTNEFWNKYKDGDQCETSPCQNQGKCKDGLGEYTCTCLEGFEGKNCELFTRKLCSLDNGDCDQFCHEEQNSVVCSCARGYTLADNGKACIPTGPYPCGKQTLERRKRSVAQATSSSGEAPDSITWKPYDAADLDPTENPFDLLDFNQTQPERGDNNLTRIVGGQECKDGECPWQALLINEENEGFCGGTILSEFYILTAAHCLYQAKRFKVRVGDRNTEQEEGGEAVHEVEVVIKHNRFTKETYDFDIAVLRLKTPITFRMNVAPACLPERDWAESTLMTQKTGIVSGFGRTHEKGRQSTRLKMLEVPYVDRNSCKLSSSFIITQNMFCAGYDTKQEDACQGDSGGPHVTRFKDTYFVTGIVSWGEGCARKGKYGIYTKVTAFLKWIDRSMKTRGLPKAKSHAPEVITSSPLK
Chain of Factor X (FX), P00742 (P00742 whole entry, looked up): as above
Chain of Factor X, P00742 (P00742 whole entry, looked up): as above

B1: FIXa-R318Y/T343R/E410N (activated Factor IX variant, mature FIX numbering) (protein)
chain 1: YNSGKLEEFVQGNLERECMEEKCSFEEAREVFENTERTTEFWKQYVDGDQCESNPCLNGGSCKDDINSYECWCPFGFEGKNCELDVTCNIKNGRCEQFCKNSADNKVVCSCTEGYRLAENQKSCEPAVPFPCGRVSVSQTSKLTR
chain 2: VVGGEDAKPGQFPWQVVLNGKVDAFCGGSIVNEKWIVTAAHCVETGVKITVVAGEHNIEETEHTEQKRNVIRIIPHHNYNAAINKYNHDIALLELDEPLVLNSYVTPICIADKEYTNIFLKFGSGYVSGWGRVFHKGYSALVLQYLRVPLVDRATCLRSTKFRIYNNMFCAGFHEGGRDSCQGDSGGPHVTEVEGTSFLTGIISWGEECAMKGKYGIYTKVSRYVNWIKNKTKLT
Question: For B1, which “% of WT kcat/KM (against recombinant Catalyst Biosciences WT FIXa)” value (shortened to “% of WT kcat/KM”) [1] is on record?
Answer: 135%

Question: And the kcat/KM (catalytic activity for FX activation; Xase complex with FVIIIa, PC/PS vesicles and Ca2+; fluorogenic Spectrafluor FXa read-out) [1]?
Answer: 6.2e+07 M⁻¹ s⁻¹

B2: FIXa variant R318Y/R338E/N346Y/R403E/E410N (mature FIX numbering) (protein)
chain 1: YNSGKLEEFVQGNLERECMEEKCSFEEAREVFENTERTTEFWKQYVDGDQCESNPCLNGGSCKDDINSYECWCPFGFEGKNCELDVTCNIKNGRCEQFCKNSADNKVVCSCTEGYRLAENQKSCEPAVPFPCGRVSVSQTSKLTR
chain 2: VVGGEDAKPGQFPWQVVLNGKVDAFCGGSIVNEKWIVTAAHCVETGVKITVVAGEHNIEETEHTEQKRNVIRIIPHHNYNAAINKYNHDIALLELDEPLVLNSYVTPICIADKEYTNIFLKFGSGYVSGWGRVFHKGYSALVLQYLRVPLVDRATCLESTKFTIYYNMFCAGFHEGGRDSCQGDSGGPHVTEVEGTSFLTGIISWGEECAMKGKYGIYTKVSEYVNWIKNKTKLT
Question: B2 was tested. Which K0.5-mut/K0.5-wt [2] did it give?
Answer: 517

B3: FIXa-K228N/K247N/N249S/R318Y/R338E/T343R/E410N (activated Factor IX variant, mature FIX numbering) (protein)
chain 1: YNSGKLEEFVQGNLERECMEEKCSFEEAREVFENTERTTEFWKQYVDGDQCESNPCLNGGSCKDDINSYECWCPFGFEGKNCELDVTCNIKNGRCEQFCKNSADNKVVCSCTEGYRLAENQKSCEPAVPFPCGRVSVSQTSKLTR
chain 2: VVGGEDAKPGQFPWQVVLNGKVDAFCGGSIVNEKWIVTAAHCVETGVNITVVAGEHNIEETEHTEQNRSVIRIIPHHNYNAAINKYNHDIALLELDEPLVLNSYVTPICIADKEYTNIFLKFGSGYVSGWGRVFHKGYSALVLQYLRVPLVDRATCLESTKFRIYNNMFCAGFHEGGRDSCQGDSGGPHVTEVEGTSFLTGIISWGEECAMKGKYGIYTKVSRYVNWIKNKTKLT
Question: Which results are given for B3?
Answer: % of WT kcat/KM (against recombinant Catalyst Biosciences WT FIXa) [1]: 278%; kcat/KM (catalytic activity for FX activation; Xase complex with FVIIIa, PC/PS vesicles and Ca2+; fluorogenic Spectrafluor FXa read-out) [1]: 1.3e+08 M⁻¹ s⁻¹

B4: FIXa-K228N/K247N/N249S/R318Y/R338E/T343R/R403E (activated Factor IX variant, mature FIX numbering) (protein)
chain 1: YNSGKLEEFVQGNLERECMEEKCSFEEAREVFENTERTTEFWKQYVDGDQCESNPCLNGGSCKDDINSYECWCPFGFEGKNCELDVTCNIKNGRCEQFCKNSADNKVVCSCTEGYRLAENQKSCEPAVPFPCGRVSVSQTSKLTR
chain 2: VVGGEDAKPGQFPWQVVLNGKVDAFCGGSIVNEKWIVTAAHCVETGVNITVVAGEHNIEETEHTEQNRSVIRIIPHHNYNAAINKYNHDIALLELDEPLVLNSYVTPICIADKEYTNIFLKFGSGYVSGWGRVFHKGYSALVLQYLRVPLVDRATCLESTKFRIYNNMFCAGFHEGGRDSCQGDSGGPHVTEVEGTSFLTGIISWGEECAMKGKYGIYTKVSEYVNWIKEKTKLT
Question: Which “% of WT kcat/KM” value [1] does the source give for B4 here?
Answer: 636%

Question: And the kcat/KM (catalytic activity for FX activation; Xase complex with FVIIIa, PC/PS vesicles and Ca2+; fluorogenic Spectrafluor FXa read-out) [1]?
Answer: 2.9e+08 M⁻¹ s⁻¹

B5: FIXa-R318Y/R403E/E410N (protein)
chain 1: YNSGKLEEFVQGNLERECMEEKCSFEEAREVFENTERTTEFWKQYVDGDQCESNPCLNGGSCKDDINSYECWCPFGFEGKNCELDVTCNIKNGRCEQFCKNSADNKVVCSCTEGYRLAENQKSCEPAVPFPCGRVSVSQTSKLTR
chain 2: VVGGEDAKPGQFPWQVVLNGKVDAFCGGSIVNEKWIVTAAHCVETGVKITVVAGEHNIEETEHTEQKRNVIRIIPHHNYNAAINKYNHDIALLELDEPLVLNSYVTPICIADKEYTNIFLKFGSGYVSGWGRVFHKGYSALVLQYLRVPLVDRATCLRSTKFTIYNNMFCAGFHEGGRDSCQGDSGGPHVTEVEGTSFLTGIISWGEECAMKGKYGIYTKVSEYVNWIKNKTKLT
Question: For B5, which kcat (Factor X (FX), P00742) is on record?
Answer: 2.3 s⁻¹

Question: What about the KM (Factor X, P00742) of the same protein?
Answer: 0.0883 µM

Question: What about the K0.5-mut/K0.5-wt [3] of the same protein?
Answer: 366 fold

Question: What about the K0.5-mut/K0.5-wt [4] of the same protein?
Answer: 366

Question: And the K0.5 [5]?
Answer: 7.07 µM

B6: FIXa-K228N/R318Y/R338E/T343R/R403E/E410N (activated Factor IX variant, mature FIX numbering) (protein)
chain 1: YNSGKLEEFVQGNLERECMEEKCSFEEAREVFENTERTTEFWKQYVDGDQCESNPCLNGGSCKDDINSYECWCPFGFEGKNCELDVTCNIKNGRCEQFCKNSADNKVVCSCTEGYRLAENQKSCEPAVPFPCGRVSVSQTSKLTR
chain 2: VVGGEDAKPGQFPWQVVLNGKVDAFCGGSIVNEKWIVTAAHCVETGVNITVVAGEHNIEETEHTEQKRNVIRIIPHHNYNAAINKYNHDIALLELDEPLVLNSYVTPICIADKEYTNIFLKFGSGYVSGWGRVFHKGYSALVLQYLRVPLVDRATCLESTKFRIYNNMFCAGFHEGGRDSCQGDSGGPHVTEVEGTSFLTGIISWGEECAMKGKYGIYTKVSEYVNWIKNKTKLT
Question: How did the “% of WT kcat/KM” value [1] turn out when B6 was run?
Answer: 593%

Question: What about the kcat/KM (catalytic activity for FX activation; Xase complex with FVIIIa, PC/PS vesicles and Ca2+; fluorogenic Spectrafluor FXa read-out) [1] of the same protein?
Answer: 2.7e+08 M⁻¹ s⁻¹

B7: FIXa variant R318Y/R338E/T343R/R403E/E410N (mature FIX numbering) (protein)
chain 1: YNSGKLEEFVQGNLERECMEEKCSFEEAREVFENTERTTEFWKQYVDGDQCESNPCLNGGSCKDDINSYECWCPFGFEGKNCELDVTCNIKNGRCEQFCKNSADNKVVCSCTEGYRLAENQKSCEPAVPFPCGRVSVSQTSKLTR
chain 2: VVGGEDAKPGQFPWQVVLNGKVDAFCGGSIVNEKWIVTAAHCVETGVKITVVAGEHNIEETEHTEQKRNVIRIIPHHNYNAAINKYNHDIALLELDEPLVLNSYVTPICIADKEYTNIFLKFGSGYVSGWGRVFHKGYSALVLQYLRVPLVDRATCLESTKFRIYNNMFCAGFHEGGRDSCQGDSGGPHVTEVEGTSFLTGIISWGEECAMKGKYGIYTKVSEYVNWIKNKTKLT
Question: B7 was tested. Which K0.5-mut/K0.5-wt [2] did it give?
Answer: 517

B8: FIXa-R318Y/R338E/R403E/E410N (protein)
chain 1: YNSGKLEEFVQGNLERECMEEKCSFEEAREVFENTERTTEFWKQYVDGDQCESNPCLNGGSCKDDINSYECWCPFGFEGKNCELDVTCNIKNGRCEQFCKNSADNKVVCSCTEGYRLAENQKSCEPAVPFPCGRVSVSQTSKLTR
chain 2: VVGGEDAKPGQFPWQVVLNGKVDAFCGGSIVNEKWIVTAAHCVETGVKITVVAGEHNIEETEHTEQKRNVIRIIPHHNYNAAINKYNHDIALLELDEPLVLNSYVTPICIADKEYTNIFLKFGSGYVSGWGRVFHKGYSALVLQYLRVPLVDRATCLESTKFTIYNNMFCAGFHEGGRDSCQGDSGGPHVTEVEGTSFLTGIISWGEECAMKGKYGIYTKVSEYVNWIKNKTKLT
Question: For B8, which “catalytic activity (kcat/KM) for activation of FX” value (Factor X (FX), P00742) is on record?
Answer: displayed some of the greatest increases in catalytic activity

Question: What about the kcat (Factor X (FX), P00742) of the same protein?
Answer: 5 s⁻¹ and 5.8 s⁻¹

Question: What about the KM (Factor X, P00742) of the same protein?
Answer: 0.0455 µM

Question: And the K0.5-mut/K0.5-wt [3]?
Answer: 304 fold

Question: What about the K0.5-mut/K0.5-wt [4] of the same protein?
Answer: 304

Question: What about the K0.5 [5] of the same protein?
Answer: 5.88 µM

B9: FIXa-K228N/K247N/N249S/R318Y/T343R/R403E/E410N (activated Factor IX variant, mature FIX numbering) (protein)
chain 1: YNSGKLEEFVQGNLERECMEEKCSFEEAREVFENTERTTEFWKQYVDGDQCESNPCLNGGSCKDDINSYECWCPFGFEGKNCELDVTCNIKNGRCEQFCKNSADNKVVCSCTEGYRLAENQKSCEPAVPFPCGRVSVSQTSKLTR
chain 2: VVGGEDAKPGQFPWQVVLNGKVDAFCGGSIVNEKWIVTAAHCVETGVNITVVAGEHNIEETEHTEQNRSVIRIIPHHNYNAAINKYNHDIALLELDEPLVLNSYVTPICIADKEYTNIFLKFGSGYVSGWGRVFHKGYSALVLQYLRVPLVDRATCLRSTKFRIYNNMFCAGFHEGGRDSCQGDSGGPHVTEVEGTSFLTGIISWGEECAMKGKYGIYTKVSEYVNWIKNKTKLT
Question: With B9 as the protein, how does the “% of WT kcat/KM” value [1] read?
Answer: 153%

Question: And the kcat/KM (catalytic activity for FX activation; Xase complex with FVIIIa, PC/PS vesicles and Ca2+; fluorogenic Spectrafluor FXa read-out) [1]?
Answer: 7.1e+07 M⁻¹ s⁻¹
